The source of these data is patent US20220152104A1 (published 2022).

The target in the assay is T1, NY-ESO-1 peptide on HLA-B*40:01 (human).
T1 peptide: EFTVSGNIL
Description: multimer staining. The text has this: FIGS. 4A-4I are graphical representations of positive staining of Jurkat 76/CD8 cells transduced with B*40:01/NY-ESO-1₁₂₅₋₁₃₃ TCR genes with a cognate multimer. Jurkat 76/CD8 cells transduced with the B*40:01/NY-ESO-1₁₂₅₋₁₃₃ TCR (FIGS. 4B, 4E, and 4H) were stained with the B*40:01/NY-ESO-1₁₂₅₋₁₃₃ multimer (FIG. 4B). […], B*40:01/unexchanged multimer (FIGS. 4G, 4H, and 4I), and A*02:01/NY-ESO-1₁₅₇₋₁₆₅ TCR (clone 1G4LY; FIGS. 4C, 4F, and 4I) as well as untransduced Jurkat 76/CD8 cells (FIGS. 4A, 4D, and 4G) were employed as controls The percentage of multimer⁺ CD8⁺ cells is shown.
T cells (1×10⁵) were incubated for 30 minutes at 37° C. in the presence of 50 nM dasatinib (LC laboratories). The cells were then washed and incubated with 5-10 μg/ml of multimer for 30 minutes at room temperature, and R-phycoerythrin-conjugated AffiniPure Fab fragment goat anti-mouse IgG1 (Jackson ImmunoResearch Laboratories) was added for 15 minutes at 4° C. Next, the cells were washed three times and costained with an anti-CD8 mAb for 15 minutes at 4° C. Dead cells were finally discriminated using the LIVE/DEAD Fixable Dead Cell Stain kit.

B1: B*40:01/NY-ESO-1125-133 TCR (TCR, V domains shown)
Valpha: SQQGEEDPQALSIQEGENATMNCSYKTSINNLQWYRQNSGRGLVHLILIRSNEREKHSGRLRVTLDTSKKSSSLLITASRAADTASYFCATDRGTDKLIFGTGTRLQVFP
Vbeta: NAGVTQTPKFRVLKTGQSMTLLCAQDMNHEYMYWYRQDPGMGLRLIHYSVGEGTTAKGEVPDGYNVSRLKKQNFLLGLESAAPSQTSVYFCASSPGVGTEAFFGQGTRLTVV
Regarding B1, the binding result is on record as “recognises”.
